Test results as given in the supplement of paper PMC7877785.
± gives the uncertainty stated by the source.

Assay: self-splicing fitness, log relative to wild type (ln ratio); higher = more splicing; Tetrahymena group I intron in knt gene, E. coli kanamycin selection, DiMSum; sequences stand for … in CUCUCU…GGAGGGAAAAGUUAUCAGGCAUGCACCUGGUAGCUAGUCUUUAAACCAAUAGAUUGCAUCGGUUUAAAAGGCAAGACCGUCAAAUUGCGGGAAAGGGGUCAACAGCCGUUCAGUACCAAGUCUCAGGGGAAACUUUGAGAUGGCCUUGCAAAGGGUAUGGUAAUAAGCUGACGGACAUGGUCCUAACCACGCAGCCAAGUCCUAAGUCAACAGAUCUUCUGUUGAUAUGGAUGCAGUUCACAGACUAAAUGUCGGUCGGGGAAGAUGUAUUCUUCUCAUAAGAUAUAGUCGGACCUCUCCUUAAUGGGAGCUAGCGGAUGAAGUGAUGCAACACUGGAGCCGCUGGGAACUAAUUUGUAUGCGAAAGUAUAUUGAUUAGUUUUGGAGUACUCGUGGUCG
In short: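 Colonies from six replicate transformations of E. coli BL21(DE3) were pooled and amplicon-sequenced on an Illumina HiSeq 2500. The library placed an intron with all eight P1ex-region nucleotides randomised inside the knt kanamycin-resistance gene on pET-22b(+), and cells grew overnight at 37°C or 30°C on LB agar with or without 25 μg/mL kanamycin (plus 100 μg/mL carbenicillin, 50 μM IPTG, 0.2% rhamnose). Fitness is the DiMSum error-weighted combination of wild-type-normalised replicate fold changes, kanamycin versus none.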

Row | Sequence | self-splicing fitness (ln) (30 °C) | self-splicing fitness (ln) (37 °C)
1 | CCGUAGCAAUAUUACGUAGA | -3.28 ± 0.22 | -1.41 ± 0.13
2 | CCGUAGCAAUAUUACGUCCG | 0.211 ± 0.094 | 0.319 ± 0.11
3 | CCGUAGCAAUAUUACGUCGG | -3.57 ± 0.17 | -3.02 ± 0.23
4 | CCGUAGCAAUAUUACGUGCU | – | -1.98 ± 0.19
5 | CCGUAGCAAUAUUACGUGGA | -3.1 ± 0.32 | -2.84 ± 0.21
6 | CCGUAGCAAUAUUACGUGUA | -3.5 ± 0.2 | -3.25 ± 0.29
7 | CCUAAGCAAUAUUACGACAU | -3.909 ± 0.025 | -2.82 ± 0.038
8 | CCUAAGCAAUAUUACGAGGU | -4.68 ± 0.25 | -3.38 ± 0.18
9 | CCUAAGCAAUAUUACGAUCA | -3.57 ± 0.28 | -3 ± 0.25
10 | CCUAAGCAAUAUUACGAUCU | -3.39 ± 0.35 | -3.07 ± 0.28
11 | CCUAAGCAAUAUUACGCAAA | -3.38 ± 0.36 | -1.76 ± 0.3
12 | CCUAAGCAAUAUUACGCAGC | -3.07 ± 0.29 | -2.46 ± 0.24
13 | CCUAAGCAAUAUUACGCAGU | -3.23 ± 0.19 | -1.76 ± 0.19
14 | CCUAAGCAAUAUUACGCUCC | -4.01 ± 0.46 | -2.97 ± 0.29
15 | CCUAAGCAAUAUUACGGACA | -1.7 ± 0.31 | -2.24 ± 0.31
16 | CCUAAGCAAUAUUACGGCAU | -3.48 ± 0.22 | -1.98 ± 0.19
17 | CCUAAGCAAUAUUACGGCGC | -3.12 ± 0.29 | -3.22 ± 0.33
18 | CCUAAGCAAUAUUACGGGCA | -3.62 ± 0.25 | -2.85 ± 0.24
19 | CCUAAGCAAUAUUACGUAAG | -0.318 ± 0.064 | -0.35 ± 0.087

Row | Sequence | self-splicing fitness (ln) (30 °C) | self-splicing fitness (ln) (37 °C)
20 | CCUAAGCAAUAUUACGUGCU | -3 ± 0.24 | -2.55 ± 0.36
21 | CCUAAGCAAUAUUACGUUCG | -2.38 ± 0.091 | -2.02 ± 0.11
22 | CCUCAGCAAUAUUACGAAUA | -1.54 ± 0.2 | -2.78 ± 0.4
23 | CCUCAGCAAUAUUACGACAG | -1.06 ± 0.066 | -0.262 ± 0.079
24 | CCUCAGCAAUAUUACGACGG | -2.74 ± 0.18 | -1.64 ± 0.27
25 | CCUCAGCAAUAUUACGACUG | -3.09 ± 0.23 | -2.76 ± 0.21
26 | CCUCAGCAAUAUUACGAGAU | -3.32 ± 0.18 | -3.16 ± 0.24
27 | CCUCAGCAAUAUUACGAGUC | -3.88 ± 0.34 | -2.27 ± 0.26
28 | CCUCAGCAAUAUUACGAUAG | -0.572 ± 0.067 | -1.24 ± 0.1
29 | CCUCAGCAAUAUUACGCAUA | -2.47 ± 0.17 | -2.19 ± 0.17
30 | CCUCAGCAAUAUUACGCCAC | -3.18 ± 0.36 | -2.12 ± 0.41
31 | CCUCAGCAAUAUUACGCCUG | -2.38 ± 0.081 | -1.72 ± 0.11
32 | CCUCAGCAAUAUUACGCGCG | -2.78 ± 0.13 | -1.45 ± 0.13
33 | CCUCAGCAAUAUUACGCUGG | -2.55 ± 0.12 | -2.41 ± 0.17
34 | CCUCAGCAAUAUUACGGAGA | -2.8 ± 0.18 | -1.4 ± 0.15
35 | CCUCAGCAAUAUUACGGAUC | – | -1.41 ± 0.22
36 | CCUCAGCAAUAUUACGGGGC | -3.68 ± 0.14 | -2.98 ± 0.19
37 | CCUCAGCAAUAUUACGGGGU | -3.88 ± 0.15 | -3.49 ± 0.2
38 | CCUCAGCAAUAUUACGGUAG | -0.514 ± 0.05 | -0.195 ± 0.067
